Assay results taken from article PMC5369529, “Substrate selectivity of an isolated enoyl reductase catalytic domain from an iterative highly reducing fungal polyketide synthase reveals key components of programming” (Chemical Science, 2016).

Key:
[1] = biological target: T1, isolated enoyl reductase (ER) domain of squalestatin tetraketide synthase (SQTKS) (Phoma sp. C2932, UniProt Q86ZD9); assay: inhibition of turnover of tigloyl pantetheine 5P; assay type: biochemical; details: substrate 5P, NADPH; inhibitor, not reduced
T1 construct: gene pks1; isolated ER domain only, his6-tagged, from synthetic codon-optimised phpks1, expressed in E. coli; dimer; exact borders in ESI (model begins at G1886)
T1 sequence (Q86ZD9 1887-2207 limits assumed): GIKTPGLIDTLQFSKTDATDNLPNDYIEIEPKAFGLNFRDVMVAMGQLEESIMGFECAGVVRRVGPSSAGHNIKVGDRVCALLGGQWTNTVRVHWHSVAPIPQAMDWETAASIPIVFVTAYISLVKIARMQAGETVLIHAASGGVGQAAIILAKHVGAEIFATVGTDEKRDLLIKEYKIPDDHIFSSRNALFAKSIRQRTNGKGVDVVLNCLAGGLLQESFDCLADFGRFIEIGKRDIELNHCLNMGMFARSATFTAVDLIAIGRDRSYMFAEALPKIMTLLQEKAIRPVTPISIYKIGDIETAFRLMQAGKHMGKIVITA

[2] = substrate: CCC/C=C/C(=O)SCCNC(=O)CCNC(=O)[C@H](O)C(C)(C)CO; assay: purified protein, by the assay type; design: continuous spectrophotometric assay, NADPH consumption at 340 nm, initial rates fitted to Michaelis-Menten; details: 30.0 °C
[3] = substrate: CCCCC/C=C/C(=O)SCCNC(=O)CCNC(=O)[C@H](O)C(C)(C)CO; assay: purified protein, by the assay type; design: continuous spectrophotometric assay, NADPH consumption at 340 nm, initial rates fitted to Michaelis-Menten; details: 30.0 °C
[4] = substrate: CCCC/C=C/C(=O)SCCNC(=O)CCNC(=O)[C@H](O)C(C)(C)CO; assay: purified protein, by the assay type; design: continuous spectrophotometric assay, NADPH consumption at 340 nm, initial rates fitted to Michaelis-Menten; details: 30.0 °C
[5] = substrate: C/C=C(\C)C(=O)SCCNC(=O)CCNC(=O)[C@H](O)C(C)(C)CO; assay: purified protein, by the assay type; design: continuous spectrophotometric assay, NADPH consumption at 340 nm, initial rates fitted to Michaelis-Menten; details: 30.0 °C
[6] = substrate: CCC(C)/C=C/C(=O)SCCNC(=O)CCNC(=O)[C@H](O)C(C)(C)CO; assay: purified protein, by the assay type; design: continuous spectrophotometric assay, NADPH consumption at 340 nm, initial rates fitted to Michaelis-Menten; details: 30.0 °C
[7] = substrate: C/C=C(\CC)C(=O)SCCNC(=O)CCNC(=O)[C@H](O)C(C)(C)CO; assay: purified protein, by the assay type; design: continuous spectrophotometric assay, NADPH consumption at 340 nm, initial rates fitted to Michaelis-Menten; details: 30.0 °C
[8] = substrate: CC(C)CCC/C=C/C(=O)SCCNC(=O)CCNC(=O)[C@H](O)C(C)(C)CO; assay: purified protein, by the assay type; design: continuous spectrophotometric assay, NADPH consumption at 340 nm, initial rates fitted to Michaelis-Menten; details: 30.0 °C
[9] = substrate: CC[C@H](C)/C=C(\C)C(=O)SCCNC(=O)CCNC(=O)[C@H](O)C(C)(C)CO; assay: purified protein, by the assay type; design: continuous spectrophotometric assay, NADPH consumption at 340 nm, initial rates fitted to Michaelis-Menten; details: 30.0 °C
[10] = substrate: C/C=C(/C)C(=O)SCCNC(=O)CCNC(=O)[C@H](O)C(C)(C)CO; assay: purified protein, by the assay type; design: continuous spectrophotometric assay, NADPH consumption at 340 nm, initial rates fitted to Michaelis-Menten; details: 30.0 °C
[11] = substrate: CCC(C)CC(C)/C=C/C(=O)SCCNC(=O)CCNC(=O)[C@H](O)C(C)(C)CO; assay: purified protein, by the assay type; design: continuous spectrophotometric assay, NADPH consumption at 340 nm, initial rates fitted to Michaelis-Menten; details: 30.0 °C
[12] = substrate: CCC/C=C(\CC)C(=O)SCCNC(=O)CCNC(=O)[C@H](O)C(C)(C)CO; assay: purified protein, by the assay type; design: continuous spectrophotometric assay, NADPH consumption at 340 nm, initial rates fitted to Michaelis-Menten; details: 30.0 °C
[13] = substrate: CCC/C=C(\C)C(=O)SCCNC(=O)CCNC(=O)[C@H](O)C(C)(C)CO; assay: purified protein, by the assay type; design: continuous spectrophotometric assay, NADPH consumption at 340 nm, initial rates fitted to Michaelis-Menten; details: 30.0 °C
[14] = substrate: CC(C)CC/C=C/C(=O)SCCNC(=O)CCNC(=O)[C@H](O)C(C)(C)CO; assay: purified protein, by the assay type; design: continuous spectrophotometric assay, NADPH consumption at 340 nm, initial rates fitted to Michaelis-Menten; details: 30.0 °C

CC[C@H](C)C[C@H](C)/C=C/C(=O)SCCNC(=O)CCNC(=O)[C@H](O)C(C)(C)CO [1P, squalestatin tetraketide pantetheine]
inhibition of turnover of tigloyl pantetheine 5P [1]: it does act as an inhibitor of the ER in vitro

B1: isolated enoyl reductase (ER) domain of squalestatin tetraketide synthase (SQTKS) (Phoma sp. C2932) (protein)
chain: GIKTPGLIDTLQFSKTDATDNLPNDYIEIEPKAFGLNFRDVMVAMGQLEESIMGFECAGVVRRVGPSSAGHNIKVGDRVCALLGGQWTNTVRVHWHSVAPIPQAMDWETAASIPIVFVTAYISLVKIARMQAGETVLIHAASGGVGQAAIILAKHVGAEIFATVGTDEKRDLLIKEYKIPDDHIFSSRNALFAKSIRQRTNGKGVDVVLNCLAGGLLQESFDCLADFGRFIEIGKRDIELNHCLNMGMFARSATFTAVDLIAIGRDRSYMFAEALPKIMTLLQEKAIRPVTPISIYKIGDIETAFRLMQAGKHMGKIVITA
notes: isolated ER domain only, his6-tagged, from synthetic codon-optimised phpks1, expressed in E. coli; dimer; exact borders in ESI (model begins at G1886)
Km [2]: 0.23 µM
kcat [2]: 25.9 s⁻¹
kcat/Km [2]: 1.13e+08 M⁻¹ s⁻¹
Km [3]: 0.6 µM
kcat [3]: 9 s⁻¹
kcat/Km [3]: 1.5e+07 M⁻¹ s⁻¹
Km [4]: 0.18 µM
kcat [4]: 7.11 s⁻¹
kcat/Km [4]: 3.95e+07 M⁻¹ s⁻¹
Km [5]: 0.69 µM
kcat [5]: 8.9 s⁻¹
kcat/Km [5]: 1.29e+07 M⁻¹ s⁻¹
Km [6]: 0.18 µM
kcat [6]: 5.9 s⁻¹
kcat/Km [6]: 3.28e+07 M⁻¹ s⁻¹
Km [7]: 0.16 µM
kcat [7]: 2.58 s⁻¹
kcat/Km [7]: 1.61e+07 M⁻¹ s⁻¹
Km [8]: 4.70 µM
kcat [8]: 0.85 s⁻¹
kcat/Km [8]: 200000 M⁻¹ s⁻¹
Km [9]: 0.41 µM
kcat [9]: 48.8 s⁻¹
kcat/Km [9]: 1.19e+08 M⁻¹ s⁻¹
Km [10]: 0.44 µM
kcat [10]: 11.4 s⁻¹
kcat/Km [10]: 2.59e+07 M⁻¹ s⁻¹
Km [11]: 0.18 µM
kcat [11]: 2 s⁻¹
kcat/Km [11]: 1.11e+07 M⁻¹ s⁻¹
Km [12]: 0.19 µM
kcat [12]: 4.71 s⁻¹
kcat/Km [12]: 2.48e+07 M⁻¹ s⁻¹
Km [13]: 0.54 µM
kcat [13]: 415 s⁻¹
kcat/Km [13]: 7.68e+08 M⁻¹ s⁻¹
Km [14]: 0.52 µM
kcat [14]: 5.6 s⁻¹
kcat/Km [14]: 1.08e+07 M⁻¹ s⁻¹
